According to patent US6740739B1, “Substitutional variants of APO-2 ligand” (Genentech, Inc., priority 1998, dated 2004):

Legend:
[1] = system: HCT116 human colon carcinoma cells; experiment: Tumor volume in nude mice, osmotic mini-pump infusion; format: in vivo; conditions: E. coli-expressed Apo-2 ligand (aa 91-281/92-281) 10 mg/kg each day by intraperitoneal osmotic mini-pump; over 3 days; vehicle no change; FIG. 15
Experimental: In the experiment, the nude mice were injected subcutaneously with HCT116 human colon carcinoma cells (ATCC CCL 247) (1×10^6 cells) on each side of the animal. The tumors were then allowed to grow to reach approximately 1 cm diameter (approximately 10 days). On Day 0, the tumor volume was measured with calipers. Volume was calculated as π/6×ab^2, where a=length and b=width. Then osmotic mini-pumps (available from Alza Corp., Model 1003) were implanted intraperitoncally into each animal. The mini-pumps were loaded with either (1) control vehicle (20 mM Tris pH 7.5, 8% Trehalose. 0.01% Tween-20) or (2) Apo-2 ligand. Five animals in each group received either the control vehicle or Apo-2 ligand. The mini-pumps were calibrated to deliver each day 10 mg/kg Apo-2 ligand (10 mg/ml×2 μl/hour) or 2 μl/hour control vehicle.
On Day 3, the tumor volume was again measured, and the animals were sacrificed. […] There was no change in tumor volume in the vehicle group, but a marked reduction in tumor size occurred in mice infused with the Apo-2L. The treatment with the Apo-2L shrunk the tumors by about 50% over 3 days.

[2] = system: ME-180; experiment: Cell viability by crystal violet staining; format: cell-based, human
Experimental: The following human tumor cell lines were assayed: A549 (lung carcinoma, ATCC CCL 185); HCT116 (colon carcinoma, ATCC CCL 247); SW480 (colon adenocarcinoma, ATCC CCL 228); MDA231 (breast adenocarcinoma, ATCC HTB 26); HeLa (cervical carcinoma, ATCC CCL 22); ME-180 (cervical carcinoma, ATCC HTB 33); T24 (bladder carcinoma. ATCC HTB 4); SK-N-AS (neuroblastoma, White et al., Proc. Natl. Acad. Sci., 92:5520-5524 (1995)). The cells were plated at 2.5×10^5 cells/ml in 96 well plates and incubated overnight. The cells were cultured in the presence of 2-fold dilutions of Apo-2 ligand (ranging from 100 ng/ml to 0.01 ng/ml). In some of the cultures, a chemotherapeuticagent was also added for 24 hours-cyclohexamide (“CHX”) (50 μg/ml; Sigma Chemicals), Doxorubicin (10-100 μg/ml; Pharmacia), or 5-FU (6 mg/ml; Roche). After 24 hours of incubation, the cells were stained with 0.5% crystal-violetin 20% methanol. Cell viability was determined by eluting the dye from the stained cells with 0.1M sodium citrate (0.1M citric acid in 50% methanol), and measuring absorbance at 540 nm.

[3] = system: 9D cells; experiment: Apoptosis by FACS (PI / FITC-annexin V); format: cell-based, human; conditions: Apo-2 ligand 3 μg/ml, 24 hours, control 22.5
Experimental: Apoptotic activity of purified, soluble Apo-2 ligand (described in Example 3) was examined using several human lymphoid cell lines. In a first study, the effect of Apo-2 ligand on 9D cells (Genentech, Inc.), derived from Epstein-Barrvirus (EBV)-transformed human peripheral blood B cells, was examined. The 9D cells (5×10^4 cells/well in RPMI 1640 medium plus 10% fetal calf serum) were incubated for 24 hours with either a media control, Apo-2 ligand (3 μg/ml, prepared as described in Example 3 above), or anti-Apo-1 monoclonal antibody, CH11 (1 μg/ml) [described by Yonehara et al., J. Exp. Med., 169:1747-1756 (1989); commercially available from Medical and Biological Laboratories Co.]. […]
The effects of the Apo-2 ligand on the 9D cells, as well as on Raji cells (human Burkitt's lymphoma B cell line, ATCC CCL 86) and Jurkat cells (human acute T cell leukemia cell line, ATCC TIB 152) were further analyzed by FACS. […]
The 9D cells (FIG. 2B), Raji cells (FIG. 2C), and Jurkat cells (FIG. 2D) were incubated (1×10^6 cells/well) for 24 hours with a media control (left panels), Apo-2 ligand (3 μg/ml, prepared as described in Example 3) (center panels), or anti-Apo-1 ligand antibody, CH11 (1 μg/ml) (right panels). The cells were then washed, stained with PI and with fluorescein thiocyanate (FITC)-conjugatedannexin V (purchased from Brand Applications) and analyzed by flow cytometry. […]

[4] = system: HeLa; experiment: Cell viability by crystal violet staining; format: cell-based, human
Experimental: (§1) The following human tumor cell lines were assayed: A549 (lung carcinoma, ATCC CCL 185); HCT116 (colon carcinoma, ATCC CCL 247); SW480 (colon adenocarcinoma, ATCC CCL 228); MDA231 (breast adenocarcinoma, ATCC HTB 26); HeLa (cervical carcinoma, ATCC CCL 22); ME-180 (cervical carcinoma, ATCC HTB 33); T24 (bladder carcinoma. ATCC HTB 4); SK-N-AS (neuroblastoma, White et al., Proc. Natl. Acad. Sci., 92:5520-5524 (1995)). The cells were plated at 2.5×10^5 cells/ml in 96 well plates and incubated overnight. The cells were cultured in the presence of 2-fold dilutions of Apo-2 ligand (ranging from 100 ng/ml to 0.01 ng/ml). In some of the cultures, a chemotherapeuticagent was also added for 24 hours-cyclohexamide (“CHX”) (50 μg/ml; Sigma Chemicals), Doxorubicin (10-100 μg/ml; Pharmacia), or 5-FU (6 mg/ml; Roche).
(§2) After 24 hours of incubation, the cells were stained with 0.5% crystal-violetin 20% methanol. Cell viability was determined by eluting the dye from the stained cells with 0.1M sodium citrate (0.1M citric acid in 50% methanol), and measuring absorbance at 540 nm.

[5] = system: SK-N-AS; experiment: Cell viability by crystal violet staining; format: cell-based, human; conditions: SK-N-AS neuroblastoma, p53 ?; 24 h
Experimental: as §1, §2

B1: Apo-2L: purified soluble His10-tagged human Apo-2 ligand, residues 114-281, from baculovirus-infected Sf9 cells (Example 3); used in Examples 4-14 (protein)
chain: MGHHHHHHHHHHSSGHIDDDDKHMVRERGPQRVAAHITGTRGRSNTLSSPNSKNEKALGRKINSWESSRSGHSFLSNLHLRNGELVIHEKGFYYIYSQTYFRFQEEIKENTKNDKQMVQYIYKYTSYPDPILLMKSARNSCWSKDAEYGLYSIYQGGIFELKENDRIFVSVTNEHLIDMDHEASFFGAFLVG
shrinkage of tumors (change in tumor volume) [1]: about 50%
Apo-2L sensitivity ENHANCED BY Dox ([2]; ME180, Doxorubicin 10-100 μg/ml, 24 hours): yes
Apo-2L sensitivity ENHANCED BY CHX ([2]; ME180, cyclohexamide 50 μg/ml, 24 hours): yes
Apo-2L SENSITIVITY ([2]; ME180 cervical carcinoma, p53 WT, 24 h): ++ (>70% death after 24 h with 100 ng/ml Apo-2L)
% apoptotic cells [3]: 92.4%
Apo-2L SENSITIVITY ([4]; HeLa cervical carcinoma, p53 mut, 24 h): + (>35% death after 24 h with 100 ng/ml Apo-2)
Apo-2L sensitivity ENHANCED BY CHX ([4]; HeLa, cyclohexamide 50 μg/ml, 24 hours): yes
Apo-2L SENSITIVITY [5]: + (>35% death after 24 h with 100 ng/ml Apo-2)
